For ten molecules, Kd results are on record in patent US20250270339A1.

Assay [1] concerns the target huTfR Apical Domain-Avi-His (human). Kind of assay: SPR (Carterra LSA), 2+2 captured.
Assay [2] addresses Cyno TfR apical permuted N-term Avi-His (cynomolgus). Kind of assay: SPR (Carterra LSA), 2+2 captured.

Sequence of Cyno TfR apical permuted N-term Avi-His (cynomolgus) (chain, as listed by the source limits assumed): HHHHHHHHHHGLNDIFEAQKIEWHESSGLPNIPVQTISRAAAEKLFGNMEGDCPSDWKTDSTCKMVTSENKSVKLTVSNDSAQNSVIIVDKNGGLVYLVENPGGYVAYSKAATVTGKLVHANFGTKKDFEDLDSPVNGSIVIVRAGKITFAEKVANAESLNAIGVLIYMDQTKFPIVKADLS
Sequence of huTfR Apical Domain-Avi-His (human) (chain, as listed by the source limits assumed): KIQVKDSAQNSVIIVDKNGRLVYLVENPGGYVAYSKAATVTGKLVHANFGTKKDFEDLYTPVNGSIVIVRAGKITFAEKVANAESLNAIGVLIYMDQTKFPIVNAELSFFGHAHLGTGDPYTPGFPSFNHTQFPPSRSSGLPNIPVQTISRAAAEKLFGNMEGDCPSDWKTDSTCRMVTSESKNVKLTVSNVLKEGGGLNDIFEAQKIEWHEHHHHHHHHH

B1: TFR.15.WH8.1 2+2 anti-TfR bispecific antibody (bispecific antibody, part only; not given: isotype IgG backbone and linker, not shown: another chain or arm of the molecule; a dimerising Fc or GST; large carriers; small tags and cut ends)
scFv: QVQLVQSGAEVKKPGASVKVSCKASGYTFTSYYMHWVRQAPGQGLEWMGNIYPGSGSSNYAQKFQGRVTMTRDTSTSTVYMELSSLRSEDTAVYYCTRSSYYGNFDTMDNWGQGTTVTVSSGGSEGKSSGSGSESKSTGGSEIVLTQSPATLSLSPGERATLSCRASSSIRYMNWYQQKPGQAPRRLIYDTSNRATGIPARFSGSGSGTDFTLTISSLEPEDFAVYYCHQRSSYPWTFGGGTKVEIK
As for B1, the Kd in assay [1] was 28 nM; in assay [2], 17 nM.

B2: TFR.15.WH8.1.42Q 2+2 anti-TfR bispecific antibody (bispecific antibody, part only; not given: isotype IgG backbone and linker, not shown: another chain or arm of the molecule; a dimerising Fc or GST; large carriers; small tags and cut ends)
scFv: QVQLVQSGAEVKKPGASVKVSCKASGYTFTSYYMHWVRQAPGQGLEWMGNIYPGSGSSNYAQKFQGRVTMTRDTSTSTVYMELSSLRSEDTAVYYCTRSSYYGNFDTMDNWGQGTTVTVSSGGSEGKSSGSGSESKSTGGSEIVLTQSPATLSLSPGERATLSCRASSSIRQMNWYQQKPGQAPRRLIYDTSNRATGIPARFSGSGSGTDFTLTISSLEPEDFAVYYCHQRSSYPWTFGGGTKVEIK
For the molecule B2, the figures for the Kd in assay [1] and in assay [2] were 62 nM and 40 nM, respectively.

B3: TFR.15.WH8.1.24N 2+2 anti-TfR bispecific antibody (bispecific antibody, part only; not given: isotype IgG backbone and linker, not shown: another chain or arm of the molecule; a dimerising Fc or GST; large carriers; small tags and cut ends)
scFv: QVQLVQSGAEVKKPGASVKVSCKASGYTFTSYYMHWVRQAPGQGLEWMGNIYPGSGSSNYAQKFQGRVTMTRDTSTSTVYMELSSLRSEDTAVYYCTRSNYYGNFDTMDNWGQGTTVTVSSGGSEGKSSGSGSESKSTGGSEIVLTQSPATLSLSPGERATLSCRASSSIRYMNWYQQKPGQAPRRLIYDTSNRATGIPARFSGSGSGTDFTLTISSLEPEDFAVYYCHQRSSYPWTFGGGTKVEIK
In the case of B3, the dissociation constant (Kd) in assay [1] is 140 nM; in assay [2], 47 nM.

B4: TFR.15.WH8.1.24H 2+2 anti-TfR bispecific antibody (bispecific antibody, part only; not given: isotype IgG backbone and linker, not shown: another chain or arm of the molecule; a dimerising Fc or GST; large carriers; small tags and cut ends)
scFv: QVQLVQSGAEVKKPGASVKVSCKASGYTFTSYYMHWVRQAPGQGLEWMGNIYPGSGSSNYAQKFQGRVTMTRDTSTSTVYMELSSLRSEDTAVYYCTRSHYYGNFDTMDNWGQGTTVTVSSGGSEGKSSGSGSESKSTGGSEIVLTQSPATLSLSPGERATLSCRASSSIRYMNWYQQKPGQAPRRLIYDTSNRATGIPARFSGSGSGTDFTLTISSLEPEDFAVYYCHQRSSYPWTFGGGTKVEIK
Regarding B4, the Kd in assay [1] is 5.6 nM; in assay [2], 2.6 nM.

B5: TFR.15.WH8.1.42S 2+2 anti-TfR bispecific antibody (bispecific antibody, part only; not given: isotype IgG backbone and linker, not shown: another chain or arm of the molecule; a dimerising Fc or GST; large carriers; small tags and cut ends)
scFv: QVQLVQSGAEVKKPGASVKVSCKASGYTFTSYYMHWVRQAPGQGLEWMGNIYPGSGSSNYAQKFQGRVTMTRDTSTSTVYMELSSLRSEDTAVYYCTRSSYYGNFDTMDNWGQGTTVTVSSGGSEGKSSGSGSESKSTGGSEIVLTQSPATLSLSPGERATLSCRASSSIRSMNWYQQKPGQAPRRLIYDTSNRATGIPARFSGSGSGTDFTLTISSLEPEDFAVYYCHQRSSYPWTFGGGTKVEIK
Regarding B5, the values for the Kd in assay [1] and in assay [2] were 510 nM and 690 nM, respectively.

B6: TFR.15.WH8.1.42A 2+2 anti-TfR bispecific antibody (bispecific antibody, part only; not given: isotype IgG backbone and linker, not shown: another chain or arm of the molecule; a dimerising Fc or GST; large carriers; small tags and cut ends)
scFv: QVQLVQSGAEVKKPGASVKVSCKASGYTFTSYYMHWVRQAPGQGLEWMGNIYPGSGSSNYAQKFQGRVTMTRDTSTSTVYMELSSLRSEDTAVYYCTRSSYYGNFDTMDNWGQGTTVTVSSGGSEGKSSGSGSESKSTGGSEIVLTQSPATLSLSPGERATLSCRASSSIRAMNWYQQKPGQAPRRLIYDTSNRATGIPARFSGSGSGTDFTLTISSLEPEDFAVYYCHQRSSYPWTFGGGTKVEIK
As for B6, the Kd in assay [1] turned out to be 160 nM; in assay [2], 88 nM.

B7: TFR.15.WH8.1.26H 2+2 anti-TfR bispecific antibody (bispecific antibody, part only; not given: isotype IgG backbone and linker, not shown: another chain or arm of the molecule; a dimerising Fc or GST; large carriers; small tags and cut ends)
scFv: QVQLVQSGAEVKKPGASVKVSCKASGYTFTSYYMHWVRQAPGQGLEWMGNIYPGSGSSNYAQKFQGRVTMTRDTSTSTVYMELSSLRSEDTAVYYCTRSSYHGNFDTMDNWGQGTTVTVSSGGSEGKSSGSGSESKSTGGSEIVLTQSPATLSLSPGERATLSCRASSSIRYMNWYQQKPGQAPRRLIYDTSNRATGIPARFSGSGSGTDFTLTISSLEPEDFAVYYCHQRSSYPWTFGGGTKVEIK
On to B7, for which the Kd is 280 nM in assay [1] and 2200 nM in assay [2].

B8: TFR.15.WH8.1.42A.LH 2+2 anti-TfR bispecific antibody (bispecific antibody, part only; not given: isotype IgG backbone and linker, not shown: another chain or arm of the molecule; a dimerising Fc or GST; large carriers; small tags and cut ends)
scFv: EIVLTQSPATLSLSPGERATLSCRASSSIRAMNWYQQKPGQAPRRLIYDTSNRATGIPARFSGSGSGTDFTLTISSLEPEDFAVYYCHQRSSYPWTFGGGTKVEIKGGSEGKSSGSGSESKSTGGSQVQLVQSGAEVKKPGASVKVSCKASGYTFTSYYMHWVRQAPGQGLEWMGNIYPGSGSSNYAQKFQGRVTMTRDTSTSTVYMELSSLRSEDTAVYYCTRSSYYGNFDTMDNWGQGTTVTVSS
Regarding B8, the Kd amounted to 190 nM in assay [1] and 60 nM in assay [2].

B9: TFR.15.WH8.1.42A.3x(G4S) 2+2 anti-TfR bispecific antibody (bispecific antibody, part only; not given: isotype IgG backbone and linker, not shown: another chain or arm of the molecule; a dimerising Fc or GST; large carriers; small tags and cut ends)
scFv: QVQLVQSGAEVKKPGASVKVSCKASGYTFTSYYMHWVRQAPGQGLEWMGNIYPGSGSSNYAQKFQGRVTMTRDTSTSTVYMELSSLRSEDTAVYYCTRSSYYGNFDTMDNWGQGTTVTVSSGGGGSGGGGSGGGGSEIVLTQSPATLSLSPGERATLSCRASSSIRAMNWYQQKPGQAPRRLIYDTSNRATGIPARFSGSGSGTDFTLTISSLEPEDFAVYYCHQRSSYPWTFGGGTKVEIK
Turning to B9, the Kd in assay [2] came to 74 nM.

B10: TFR.15.WH8.1.42A.L1 2+2 anti-TfR bispecific antibody (bispecific antibody, part only; not given: isotype IgG backbone and linker, not shown: another chain or arm of the molecule; a dimerising Fc or GST; large carriers; small tags and cut ends)
scFv: QVQLVQSGAEVKKPGASVKVSCKASGYTFTSYYMHWVRQAPGQGLEWMGNIYPGSGSSNYAQKFQGRVTMTRDTSTSTVYMELSSLRSEDTAVYYCTRSSYYGNFDTMDNWGQGTTVTVSSSPNSASHSGSAPQTSSAPGSQEIVLTQSPATLSLSPGERATLSCRASSSIRAMNWYQQKPGQAPRRLIYDTSNRATGIPARFSGSGSGTDFTLTISSLEPEDFAVYYCHQRSSYPWTFGGGTKVEIK
Regarding B10, the Kd in assay [1] came out at 150 nM; in assay [2], 100 nM.

The Kd is the concentration at which binding is half-saturated.
